Numbering of substitutions follows the chain as printed. In names and notes the source's numbering stands.

The text below walks through data of patent US12365732 (23ANDME, dated 2025).

The chains are these.
T1: hu-CD96 isoform 2 on CHO cells (human, UniProt P40200 22-585)
T1 construct: also called CHO-CD96 (isoform 2); CD96-CHOs
T1 sequence: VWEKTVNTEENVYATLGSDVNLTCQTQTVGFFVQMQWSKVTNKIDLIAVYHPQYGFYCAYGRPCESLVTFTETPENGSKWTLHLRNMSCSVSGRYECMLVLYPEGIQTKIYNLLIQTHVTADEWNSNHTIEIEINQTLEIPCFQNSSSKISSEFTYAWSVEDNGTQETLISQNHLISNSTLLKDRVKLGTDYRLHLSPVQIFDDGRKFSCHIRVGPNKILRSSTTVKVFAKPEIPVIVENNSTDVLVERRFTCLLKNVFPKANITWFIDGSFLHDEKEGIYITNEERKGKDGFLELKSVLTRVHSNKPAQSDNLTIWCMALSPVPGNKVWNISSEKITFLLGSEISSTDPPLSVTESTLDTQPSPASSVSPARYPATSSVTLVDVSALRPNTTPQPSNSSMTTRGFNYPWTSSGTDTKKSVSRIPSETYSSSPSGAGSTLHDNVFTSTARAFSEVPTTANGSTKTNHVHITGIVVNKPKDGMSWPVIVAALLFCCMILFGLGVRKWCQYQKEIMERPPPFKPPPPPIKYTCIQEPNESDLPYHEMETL

T2: hu-CD96 (soluble, isoform 2 extracellular domain) (human, UniProt P40200 22-516, biotinylated in Octet and blocking ELISA)
T2 construct: the assays name only hu-CD96; also called hCD96; biotinylated hu-CD96
T2 sequence: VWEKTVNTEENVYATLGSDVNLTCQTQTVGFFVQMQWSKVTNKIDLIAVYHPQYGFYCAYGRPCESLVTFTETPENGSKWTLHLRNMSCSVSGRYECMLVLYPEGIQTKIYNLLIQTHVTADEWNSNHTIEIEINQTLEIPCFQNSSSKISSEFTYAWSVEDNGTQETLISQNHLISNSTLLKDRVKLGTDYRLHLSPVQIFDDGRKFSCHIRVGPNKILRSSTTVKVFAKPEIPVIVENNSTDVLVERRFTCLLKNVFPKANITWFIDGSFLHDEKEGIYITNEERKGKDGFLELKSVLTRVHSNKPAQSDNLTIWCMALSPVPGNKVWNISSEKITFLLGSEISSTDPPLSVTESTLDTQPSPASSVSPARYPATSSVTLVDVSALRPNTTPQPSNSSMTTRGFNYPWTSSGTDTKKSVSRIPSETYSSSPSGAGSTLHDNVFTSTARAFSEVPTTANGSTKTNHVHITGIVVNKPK

B1: 7E5, purified hybridoma antibody (antibody, V domains shown)
VH: QVQLKESGPGLVAPSQSLSIICTVSGFSLTNYGIHWIRQPPGKGLEWLGIIWAGGSTNYNSALMSRLTISKDNSKSQVFLKMNSLQTNDTAIYYCARVSMMGFAYWGQGTLVTVSA
VL: QAVVTQESALTTSPGETVTLTCRSSTGAVTTSNYANWVQEKPDHLFTGLIGGTNNRAPGVPARFSGSLIGDKAALTITGAQTEDEAIYFCSLWYGSHWVFGGGTKLTVL
notes: murine hybridoma IgG
B2: mAb1.v7 IgG (humanized 12F8) (antibody, V domains shown)
VH: EVQLVQSGAEVKKPGASVKVSCKASGFTFTNNWMHWVRQAPGQGLEWIGMIHPNSGITNINEKFKNRVTMTTDTSTSTAYMELRSLRSEDTAVYYCRSDGTYEGYFDYWGQGTLVTVSS
VL: DIQLTQSPSSLSASVGDRVTITCKASQNVGTAIVWYQQKPGKAPKVLIYSASTRYTGVPSRFSGSGSGTDFTLTISSLQPEDFATYYCQQYSSSPLTFGQGTKVEIKG
notes: human IgG1 N297G
B3: 10G1 (clone 10G1.3G8), purified hybridoma antibody (antibody, V domains shown)
VH: QIQLVQSGPELKKPGETVKISCKASGYPFTTYGMSWVKQAPGKGLKWMGWINTDSGVPTYADDFKGRFAFSLETSANTAYLQINSLKNEDAATYFCARNIYYGWGNFDYWGQGTILTVSS
VL: DILMTQSPTTLSVTPGETVSLSCRASQDIYRNLHWYQQKSQGTPRLLIKHASDSISGIPSRFTGSGSGTDFTLSINSVKPEDEGIYYCLQGYSMPYTFGGGTKLEIK
notes: murine hybridoma IgG
B4: 9H4, purified hybridoma antibody (antibody, V domains shown)
VH: EVQLLETGGGLVKSGGSLKLSCAASGFTFSDYYMYWVRQTPEKRLEWVAAISDDGTYTYYPDSVKGRFTISRDNANNYLYLQMSSLKSEDTAIYYCAKAGSYDYFDVWGAGTTVTVSS
VL: DIVLTQSPASLAVSLGQRAIISCKASQSVTFADTGLMHWYQQKPGQQPKLLIYRASNLEVGVPTRFSGSGSGTDFTLNIHPVEEEDVATYYCQQSREYPWTFGGGTKLEIK
notes: murine hybridoma IgG
B5: mAb1.v7 Fab (Fab, V domains shown)
VH: B2 VH
VL: DIQLTQSPSSLSASVGDRVTITCKASQNVGTAIVWYQQKPGKAPKVLIYSASTRYTGVPSRFSGSGSGTDFTLTISSLQPEDFATYYCQQYSSSPLTFGQGTKVEIK
B6: mAb1.v7.70 Fab (Fab, V domains shown)
VH: B2 VH with N32R, P53A, T101V
VL: B5 VL
notes: also called N32R/P52aA/T97V
B7: mAb1.v7.48 Fab (Fab, V domains shown)
VH: B2 VH with N32R, P53H, T101V
VL: B5 VL
notes: also called N32R/P52aH/T97V
B8: mAb1.v7.9 Fab (Fab, V domains shown)
VH: B2 VH with M34R, P53M, T101V
VL: B5 VL
notes: also called M34R/P52aM/T97V
B9: mAb1.v7.2 Fab (Fab, V domains shown)
VH: B2 VH with M34R, P53F, T101V
VL: B5 VL
notes: also called M34R/P52aF/T97V
B10: mAb1.v7.16 Fab (Fab, V domains shown)
VH: B2 VH with M34R, T101V
VL: B5 VL
notes: also called M34R/T97V

The target in the first test is T1, hu-CD96 isoform 2 on CHO cells. Put plainly: FACS, Ab 0.4 nM. As to the method: Isoform 1 of hu-CD96 (Origene, catalog #RC213845) was transiently expressed in HEK293T cells following standard lipofectamine or Fugene transfection protocol. […] Cells were washed, and binding was detected by incubation with anti-mouse IgG-FITC (Biolegend, catalog #406001) for 20 minutes at 4° C. Cell binding was analyzed by flow cytometry with a CytoFLEX (Beckman Coulter). Binding curves were calculated as a percentage of cells positive for bound antibody.
Isoform 2 of hu-CD96 (DNA construct: Origene, catalog #RC221005) was expressed on a single-cell-clone-derived CHO stable cell line. Binding of the anti-CD96 antibodies to the CHO cells were determined as described above with isoform 1 of hu-CD96.
B1: the “% positive” value was 44.1%.

Consider B2, for which the “% positive” value stood at 17.7%. As for B3, the “% positive” value is 25%. For B4, the “% positive” value worked out at 24.1%.

The target of a further test is T2, hu-CD96 (soluble, isoform 2 …). Put plainly: BLI (Octet), biotin-CD96 on SA, Fab analyte. The protocol: The binding affinity of the generated Fab variants of mAb1.v7 for hu-CD96 and cy-CD96 was determined by OCTET (Pall ForteBio) Bio-Layer Interferometry (BLI) binding analysis. The biotinylated hu-CD96 or biotinylated cy-CD96 was diluted to a final concentration 10 µg/mL in experimental buffer (PBS buffer with 0.01% Tween-20) and immobilized on the Streptavidin Capture (SA) biosensors (Pall ForteBio). Three-fold serial dilutions of the mAb1.v7 Fab variants starting at 1 µM as analytes were diluted in the experimental buffer (PBS buffer with 0.01% Tween-20). The biosensors were equilibrated in experimental buffer at 30° C. for ten minutes prior to starting the experiment. The kinetics experiment was performed with the following steps, where the step name, solution and time are listed: Baseline (buffer—60 seconds), Loading (biotinylated antigen—200 seconds), Baseline 2 (buffer—minimum 120 seconds), Association (analyte—200-300 seconds) and Dissociation (buffer—1000 seconds). The resulting BLI signal from analyte association and dissociation from the […] was analyzed using the Octet Data Analysis software (Pall ForteBio). First a reference subtraction was performed on all recorded traces using the reference well (biosensor that underwent same steps as experimental wells but no analyte for the Association step) and then all the traces were aligned to the beginning of the Association step. The entirety of the Association and Dissociation steps were used in a Global fit (minimum of four analyte concentration traces) in a 1:1 binding model to calculate the K_D values for the 16 selected individual mAb1.v7 Fab variants as summarized in Table 9 (below).
For the molecule B5, the “apparent Kd (pooled screen)” value is 76 nM. As for B6, the Kd was ~0.1 nM. On the same count and under the same terms, for B7 the value was ~0.1 nM; for B8, ~0.1 nM. B9 came in with a Kd of 3.75 nM.

Take B10: the Kd came out at 1.4 nM.

As usually defined, the Kd is the equilibrium constant for the complex coming apart.
